# Laboratory results: the supplement of paper PMC9112550, “Optimization of the antimicrobial peptide Bac7 by deep mutational scanning” (BMC Biology, 2022)
# Test system: Escherichia coli TOP10
# Experiment: shrunken log2 fold change of peptide-encoding DNA abundance (4.5 h post-induction vs induction); higher = less antimicrobial activity (less host growth inhibition)
# Details: time post-induction: 4.5 h; library: site-saturation at positions 5, 18, 19, 20
# 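Also: peptides expressed intracellularly from a pBAD plasmid library in pooled LB shake-flask culture, induced with 0.3% L-arabinose, DNA abundance read by NGS, three biological replicates, DESeq2 with apeglm shrinkage.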
row,Sequence,shrunken log2 fold change
1,RRIRLRPPRLPRPRPRPSDDPRP,-0.34
2,RRIRDRPPRLPRPRPRPIQKPRP,-0.0081
3,RRIRQRPPRLPRPRPRPVPHPRP,-0.0417
4,RRIRGRPPRLPRPRPRPCELPRP,-0.02
5,RRIRERPPRLPRPRPRPPHMPRP,-0.152
6,RRIRFRPPRLPRPRPRPIVFPRP,-0.0906
7,RRIRSRPPRLPRPRPRPFAPPRP,0.314
8,RRIRSRPPRLPRPRPRPYTDPRP,-1.11
9,RRIRVRPPRLPRPRPRPDFLPRP,-0.189
10,RRIRHRPPRLPRPRPRPAIYPRP,-0.798
11,RRIRIRPPRLPRPRPRPEMTPRP,0.104
12,RRIRWRPPRLPRPRPRPINLPRP,-0.748
13,RRIRKRPPRLPRPRPRPTEKPRP,0.247
14,RRIRLRPPRLPRPRPRPHSEPRP,-0.431
15,RRIRFRPPRLPRPRPRPKQDPRP,0.21
16,RRIRYRPPRLPRPRPRPIPHPRP,0.046
17,RRIRSRPPRLPRPRPRPPDSPRP,0.322
18,RRIRLRPPRLPRPRPRPACCPRP,0.0218
19,RRIRERPPRLPRPRPRPFYFPRP,0.935
20,RRIRMRPPRLPRPRPRPQLFPRP,0.0897
21,RRIRPRPPRLPRPRPRPFPQPRP,0.54
22,RRIRVRPPRLPRPRPRPDKFPRP,0.0677
23,RRIRRRPPRLPRPRPRPSTSPRP,0.0625
24,RRIRKRPPRLPRPRPRPHGHPRP,-0.248
25,RRIRWRPPRLPRPRPRPEMEPRP,0.451

row,Sequence,shrunken log2 fold change
1,RRIRQRPPRLPRPRPRPGYHPRP,-0.108
2,RRIRFRPPRLPRPRPRPKVWPRP,-0.249
3,RRIRERPPRLPRPRPRPHWCPRP,0.0281
4,RRIRMRPPRLPRPRPRPVWVPRP,0.0789
5,RRIRTRPPRLPRPRPRPWNMPRP,-0.276
6,RRIRVRPPRLPRPRPRPESLPRP,-0.175
7,RRIRMRPPRLPRPRPRPEGMPRP,2.24
8,RRIRVRPPRLPRPRPRPVNSPRP,-0.184
9,RRIRVRPPRLPRPRPRPYDTPRP,1.6
10,RRIRDRPPRLPRPRPRPPGLPRP,-0.317
11,RRIRDRPPRLPRPRPRPKSKPRP,-0.105
12,RRIRIRPPRLPRPRPRPVMRPRP,0.144
13,RRIRFRPPRLPRPRPRPHPQPRP,0.246
14,RRIRFRPPRLPRPRPRPETFPRP,-0.0396
15,RRIRWRPPRLPRPRPRPDCVPRP,0.197
16,RRIRDRPPRLPRPRPRPNELPRP,-0.0493
17,RRIRWRPPRLPRPRPRPFCSPRP,-0.0764
18,RRIRRRPPRLPRPRPRPYTLPRP,-0.34
19,RRIRARPPRLPRPRPRPRQVPRP,0.2
20,RRIRVRPPRLPRPRPRPPATPRP,0.18
21,RRIRFRPPRLPRPRPRPQQKPRP,0.0925
22,RRIRKRPPRLPRPRPRPTLKPRP,0.601
23,RRIRWRPPRLPRPRPRPNNKPRP,-0.392
24,RRIRIRPPRLPRPRPRPRPRPRP,0.472
25,RRIRRRPPRLPRPRPRPLAEPRP,0.654

row,Sequence,shrunken log2 fold change
1,RRIRGRPPRLPRPRPRPSPDPRP,0.69
2,RRIRYRPPRLPRPRPRPYCYPRP,-1.12
3,RRIRGRPPRLPRPRPRPHMVPRP,-0.0598
4,RRIRTRPPRLPRPRPRPSFSPRP,-0.262
5,RRIRCRPPRLPRPRPRPSKIPRP,-0.597
6,RRIRDRPPRLPRPRPRPENIPRP,-0.172
7,RRIRSRPPRLPRPRPRPNKEPRP,0.0328
8,RRIRHRPPRLPRPRPRPDGHPRP,-0.0262
9,RRIRHRPPRLPRPRPRPASVPRP,-0.00985
10,RRIRYRPPRLPRPRPRPCSEPRP,-0.067
11,RRIRMRPPRLPRPRPRPPQQPRP,0.945
12,RRIRGRPPRLPRPRPRPMRKPRP,1.37
13,RRIRARPPRLPRPRPRPIELPRP,0.00186
14,RRIRKRPPRLPRPRPRPNNWPRP,0.42
15,RRIRMRPPRLPRPRPRPFKSPRP,-0.0472
16,RRIRIRPPRLPRPRPRPDWWPRP,-0.00879
17,RRIRARPPRLPRPRPRPSYPPRP,-0.312
18,RRIRYRPPRLPRPRPRPGYYPRP,-0.545
19,RRIRWRPPRLPRPRPRPGFMPRP,0.212
20,RRIRNRPPRLPRPRPRPVYEPRP,-0.027
21,RRIRKRPPRLPRPRPRPYCNPRP,0.068
22,RRIRHRPPRLPRPRPRPWMRPRP,0.101
23,RRIRPRPPRLPRPRPRPRNTPRP,1.19
24,RRIRRRPPRLPRPRPRPWAVPRP,-0.00967
25,RRIRWRPPRLPRPRPRPHGDPRP,0.145
